{"source": "paper PMC12399569", "about": "(2025)", "molecular_target": "purified hTMPRSS2 protein (human, UniProt O15393 1-492)", "sequence (O15393 whole entry)": "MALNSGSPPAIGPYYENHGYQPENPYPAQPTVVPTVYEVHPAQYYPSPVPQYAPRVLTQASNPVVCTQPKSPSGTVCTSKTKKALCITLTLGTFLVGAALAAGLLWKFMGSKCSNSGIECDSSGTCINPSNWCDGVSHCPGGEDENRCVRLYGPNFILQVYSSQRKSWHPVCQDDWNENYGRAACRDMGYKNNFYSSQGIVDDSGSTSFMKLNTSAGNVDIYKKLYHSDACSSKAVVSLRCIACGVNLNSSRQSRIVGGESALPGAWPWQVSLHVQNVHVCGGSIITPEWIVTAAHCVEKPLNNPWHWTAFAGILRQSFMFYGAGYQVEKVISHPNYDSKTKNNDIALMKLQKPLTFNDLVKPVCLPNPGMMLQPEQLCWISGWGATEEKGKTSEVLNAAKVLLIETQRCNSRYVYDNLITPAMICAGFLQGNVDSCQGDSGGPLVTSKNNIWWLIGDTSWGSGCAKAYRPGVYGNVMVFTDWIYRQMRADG", "test": "SPR"}
{"binder": "Spike protein (recombinant, analyte of the ternary SPR experiment) (natural protein) CQTTNGLNTSYSVCNGCVGYSENVFAVESGGYIPSDFAFNNWFLLTNTSSVVDGVVRSFQPLLLNCLWSVSGLRFTTGFVYFNGTGRGDCKGFSSDVLSDVIRYNLNFEENLRRGTILFKTSYGVVVFYCTNNTLVSGDAHIPFGTVLGNFYCFVNTTIGNETTSAFVGALPKTVREFVISRTGHFYINGYRYFTLGNVEAVNFNVTTAETTDFCTVALASYADVLVNVSQTSIANIIYCNSVINRLRCDQLSFDVPDGFYSTSPIQSVELPVSIVSLPVYHKHTFIVLYVDFKPQSGGGKCFNCYPAGVNITLANFNETKGPLCVDTSHFTTKYVAVYANVGRWSASINTGNCPFSFGKVNNFVKFGSVCFSLKDIPGGCAMPIVANWAYSKYYTIGSLYVSWSDGDGITGVPQPVEGVSSFMNVTLDKCTKYNIYDVSGVGVIRVSNDTFLNGITYTSTSGNLLGFKDVTKGTIYSITPCNPPDQLVVYQQAVVGAMLSENFTSYGFSNVVELPKFFYASNGTYNCTDAVLTYSSFGVCADGSIIAVQPRNVSYDSVSAIVTANLSIPSNWTTSVQVEYLQITSTPIVVDCSTYVCNGNVRCVELLKQYTSACKTIEDALRNSARLESADVSEMLTFDKKAFTLANVSSFGDYNLSSVIPSLPTSGSRVAGRSAIEDILFSKLVTSGLGTVDADYKKCTKGLSIADLACAQYYNGIMVLPGVADAERMAMYTGSLIGGIALGGLTSAVSIPFSLAIQARLNYVALQTDVLQENQKILAASFNKAMTNIVDAFTGVNDAITQTSQALQTVATALNKIQDVVNQQGNSLNHLTSQLRQNFQAISSSIQAIYDRLDTIQADQQVDRLITGRLAALNVFVSHTLTKYTEVRASRQLAQQKVNECVKSQSKRYGFCGNGTHIFSIVNAAPEGLVFLHTVLLPTQYKDVEAWSGLCVDGTNGYVLRQPNLALYKEGNYYRITSRIMFEPRIPTMADFVQIENCNVTFVNISRSELQTIVPEYIDVNKTLQELSYKLPNYTVPDLVVEQYNQTILNLTSEISTLENKSAELNYTVQKLQTLIDNINSTLVDLKWLNRVETYIKWP", "values": [{"measurement": "Kd", "value": 1360, "unit": "nM"}]}
